Measurements published in paper PMC4191399.
Positions count from the first letter of the chain named.

Columns and labels:
Experiment in all cases: fluorescence polarization
Conditions in all cases: internal 6-carboxyfluorescein in backbone between U12 and C13 (central tetraloop bases); 25 mM MOPS pH 7.4, 150 mM KCl, 2 mM DTT, 2 mM MgCl2, 0.01% Triton X-100, 1 nM RNA, room temperature, 1 h
[1] = target: T1, RIG-I K788A/R791A K788A;R791A (Homo sapiens) (UniProt O95786)
T1 sequence: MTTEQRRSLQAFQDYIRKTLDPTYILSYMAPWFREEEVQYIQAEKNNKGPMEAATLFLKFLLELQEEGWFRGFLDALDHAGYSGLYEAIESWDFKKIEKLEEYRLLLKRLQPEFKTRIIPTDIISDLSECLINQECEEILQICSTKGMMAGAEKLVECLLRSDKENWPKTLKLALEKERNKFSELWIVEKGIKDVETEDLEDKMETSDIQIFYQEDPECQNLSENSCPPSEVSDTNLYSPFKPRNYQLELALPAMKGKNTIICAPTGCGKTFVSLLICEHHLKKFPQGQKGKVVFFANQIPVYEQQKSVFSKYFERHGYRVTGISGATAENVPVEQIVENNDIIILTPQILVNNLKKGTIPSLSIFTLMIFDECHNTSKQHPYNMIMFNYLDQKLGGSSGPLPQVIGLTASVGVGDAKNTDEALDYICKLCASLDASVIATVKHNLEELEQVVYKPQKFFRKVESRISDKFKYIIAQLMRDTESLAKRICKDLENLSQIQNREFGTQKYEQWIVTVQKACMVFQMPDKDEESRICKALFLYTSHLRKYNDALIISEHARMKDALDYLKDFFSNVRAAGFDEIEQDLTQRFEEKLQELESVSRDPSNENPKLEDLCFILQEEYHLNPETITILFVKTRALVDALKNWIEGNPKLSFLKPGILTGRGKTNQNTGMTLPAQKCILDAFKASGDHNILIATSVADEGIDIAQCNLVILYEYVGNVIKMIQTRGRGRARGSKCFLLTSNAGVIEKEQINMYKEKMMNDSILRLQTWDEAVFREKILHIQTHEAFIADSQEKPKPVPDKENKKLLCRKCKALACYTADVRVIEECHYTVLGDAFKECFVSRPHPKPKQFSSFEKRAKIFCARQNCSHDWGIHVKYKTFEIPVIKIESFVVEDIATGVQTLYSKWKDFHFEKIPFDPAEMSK

[2] = target: T2, RIG-I K788A K788A (Homo sapiens) (UniProt O95786)
T2 sequence: T1 sequence with A791R

[3] = target: T3, RIG-I R791A R791A (Homo sapiens) (UniProt O95786)
T3 sequence: T1 sequence with A788K

Question: What does the source list for GGACGUACGUUUCGACGUACGUCC [5'OH10L-F]?
Answer: Kd [1]: 0.166 µM; Kd [2]: 0.0216 µM; Kd [3]: 0.0507 µM
